Data as given in patent US20230287458, “RECOMBINANT ADENO-ASSOCIATED VIRAL […] FOR […] GENE […]” (Abeona Therapeutics Inc., published 2023).

Target: Cre recombinase (UniProt P06956 P06956:1-343)
Assay: cell_activity; Lox66 partner site of Lox71 in same experiment; full-length ABCA4 mRNA relative to the pair without Cre
Conditions: tags: NLS; expressed from the 5' ABCA4 vector after T2A self-cleavage; chain copies: 4
From the text: We quantified the expression levels of full-length ABCA4 mRNA in cells transfected with various plasmids.

Sequence of Cre recombinase (P06956 whole entry, one chain of several): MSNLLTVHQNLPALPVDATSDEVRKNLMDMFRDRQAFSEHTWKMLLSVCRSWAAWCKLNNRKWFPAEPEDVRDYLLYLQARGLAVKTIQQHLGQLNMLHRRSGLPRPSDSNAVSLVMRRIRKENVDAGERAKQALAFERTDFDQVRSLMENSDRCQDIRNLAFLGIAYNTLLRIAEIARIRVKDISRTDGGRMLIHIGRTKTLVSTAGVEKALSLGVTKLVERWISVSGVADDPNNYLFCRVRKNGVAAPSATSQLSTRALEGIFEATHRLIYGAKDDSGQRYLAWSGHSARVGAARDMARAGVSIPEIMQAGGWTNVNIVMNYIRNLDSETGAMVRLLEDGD

B1: Lox66 (dsDNA)
DNA 1: ATAACTTCGTATAATGTATGCTATACGAACGGTA
DNA 2: TACCGTTCGTATAGCATACATTATACGAAGTTAT
With B1 the activity was roughly 55 fold.
